Test results published in the MegaScale stability set (Tsuboyama et al. 2023).

B1: EEHEE_rd4_0647 (parent)
chain: MQVTWGNVTVTFSNPEEAKKYAEKVARKLGGQVELHNGQFRIK

Variants of: B1
Assay: folding stability dG (cDNA display proteolysis); higher = more stable
Settings: PBS, room temperature

Variant	folding stability dG
MQVEWGNVTVTFSNPEEAKKYAEKVARKLGGQVELHNGQFRIK [T4E]	1.66 kcal/mol
MQVGWGNVTVTFSNPEEAKKYAEKVARKLGGQVELHNGQFRIK [T4G]	1.46 kcal/mol
MQVHWGNVTVTFSNPEEAKKYAEKVARKLGGQVELHNGQFRIK [T4H]	2.54 kcal/mol
MQVDWGNVTVTFSNPEEAKKYAEKVARKLGGQVELHNGQFRIK [T4D]	0.672 kcal/mol
MQVKWGNVTVTFSNPEEAKKYAEKVARKLGGQVELHNGQFRIK [T4K]	2.58 kcal/mol
MQVFWGNVTVTFSNPEEAKKYAEKVARKLGGQVELHNGQFRIK [T4F]	2.24 kcal/mol
MQVAWGNVTVTFSNPEEAKKYAEKVARKLGGQVELHNGQFRIK [T4A]	2.49 kcal/mol
MQVLWGNVTVTFSNPEEAKKYAEKVARKLGGQVELHNGQFRIK [T4L]	2.6 kcal/mol
MQVIWGNVTVTFSNPEEAKKYAEKVARKLGGQVELHNGQFRIK [T4I]	2.97 kcal/mol
SQVTWGNVTVTFSNPEEAKKYAEKVARKLGGQVELHNGQFRIK [M1S]	2.61 kcal/mol
EQVTWGNVTVTFSNPEEAKKYAEKVARKLGGQVELHNGQFRIK [M1E]	1.3 kcal/mol
GQVTWGNVTVTFSNPEEAKKYAEKVARKLGGQVELHNGQFRIK [M1G]	1.95 kcal/mol
VQVTWGNVTVTFSNPEEAKKYAEKVARKLGGQVELHNGQFRIK [M1V]	3.11 kcal/mol
YQVTWGNVTVTFSNPEEAKKYAEKVARKLGGQVELHNGQFRIK [M1Y]	3.45 kcal/mol
IQVTWGNVTVTFSNPEEAKKYAEKVARKLGGQVELHNGQFRIK [M1I]	3.13 kcal/mol
PQVTWGNVTVTFSNPEEAKKYAEKVARKLGGQVELHNGQFRIK [M1P]	2.09 kcal/mol
NQVTWGNVTVTFSNPEEAKKYAEKVARKLGGQVELHNGQFRIK [M1N]	2.45 kcal/mol
DQVTWGNVTVTFSNPEEAKKYAEKVARKLGGQVELHNGQFRIK [M1D]	1.42 kcal/mol
KQVTWGNVTVTFSNPEEAKKYAEKVARKLGGQVELHNGQFRIK [M1K]	2.27 kcal/mol
AQVTWGNVTVTFSNPEEAKKYAEKVARKLGGQVELHNGQFRIK [M1A]	2.6 kcal/mol

Variant	folding stability dG
WQVTWGNVTVTFSNPEEAKKYAEKVARKLGGQVELHNGQFRIK [M1W]	3.72 kcal/mol
FQVTWGNVTVTFSNPEEAKKYAEKVARKLGGQVELHNGQFRIK [M1F]	3.34 kcal/mol
QQVTWGNVTVTFSNPEEAKKYAEKVARKLGGQVELHNGQFRIK [M1Q]	2.03 kcal/mol
TQVTWGNVTVTFSNPEEAKKYAEKVARKLGGQVELHNGQFRIK [M1T]	3.28 kcal/mol
HQVTWGNVTVTFSNPEEAKKYAEKVARKLGGQVELHNGQFRIK [M1H]	2.9 kcal/mol
CQVTWGNVTVTFSNPEEAKKYAEKVARKLGGQVELHNGQFRIK [M1C]	3.6 kcal/mol
RQVTWGNVTVTFSNPEEAKKYAEKVARKLGGQVELHNGQFRIK [M1R]	2.57 kcal/mol
LQVTWGNVTVTFSNPEEAKKYAEKVARKLGGQVELHNGQFRIK [M1L]	2.78 kcal/mol
MPVTWGNVTVTFSNPEEAKKYAEKVARKLGGQVELHNGQFRIK [Q2P]	1.45 kcal/mol
MWVTWGNVTVTFSNPEEAKKYAEKVARKLGGQVELHNGQFRIK [Q2W]	1.97 kcal/mol
MKVTWGNVTVTFSNPEEAKKYAEKVARKLGGQVELHNGQFRIK [Q2K]	2.94 kcal/mol
MDVTWGNVTVTFSNPEEAKKYAEKVARKLGGQVELHNGQFRIK [Q2D]	2.46 kcal/mol
MVVTWGNVTVTFSNPEEAKKYAEKVARKLGGQVELHNGQFRIK [Q2V]	2.86 kcal/mol
MCVTWGNVTVTFSNPEEAKKYAEKVARKLGGQVELHNGQFRIK [Q2C]	3.07 kcal/mol
MNVTWGNVTVTFSNPEEAKKYAEKVARKLGGQVELHNGQFRIK [Q2N]	2.49 kcal/mol
MTVTWGNVTVTFSNPEEAKKYAEKVARKLGGQVELHNGQFRIK [Q2T]	3.09 kcal/mol
MFVTWGNVTVTFSNPEEAKKYAEKVARKLGGQVELHNGQFRIK [Q2F]	2.16 kcal/mol
MMVTWGNVTVTFSNPEEAKKYAEKVARKLGGQVELHNGQFRIK [Q2M]	2.71 kcal/mol
MSVTWGNVTVTFSNPEEAKKYAEKVARKLGGQVELHNGQFRIK [Q2S]	3.04 kcal/mol
MRVTWGNVTVTFSNPEEAKKYAEKVARKLGGQVELHNGQFRIK [Q2R]	2.72 kcal/mol

Variant	folding stability dG
MYVTWGNVTVTFSNPEEAKKYAEKVARKLGGQVELHNGQFRIK [Q2Y]	2.23 kcal/mol
MAVTWGNVTVTFSNPEEAKKYAEKVARKLGGQVELHNGQFRIK [Q2A]	2.64 kcal/mol
MGVTWGNVTVTFSNPEEAKKYAEKVARKLGGQVELHNGQFRIK [Q2G]	2.12 kcal/mol
MHVTWGNVTVTFSNPEEAKKYAEKVARKLGGQVELHNGQFRIK [Q2H]	2.3 kcal/mol
MIVTWGNVTVTFSNPEEAKKYAEKVARKLGGQVELHNGQFRIK [Q2I]	2.82 kcal/mol
MLVTWGNVTVTFSNPEEAKKYAEKVARKLGGQVELHNGQFRIK [Q2L]	2.55 kcal/mol
MEVTWGNVTVTFSNPEEAKKYAEKVARKLGGQVELHNGQFRIK [Q2E]	2.52 kcal/mol
MQQTWGNVTVTFSNPEEAKKYAEKVARKLGGQVELHNGQFRIK [V3Q]	0.078 kcal/mol
MQRTWGNVTVTFSNPEEAKKYAEKVARKLGGQVELHNGQFRIK [V3R]	0.122 kcal/mol
MQLTWGNVTVTFSNPEEAKKYAEKVARKLGGQVELHNGQFRIK [V3L]	1.35 kcal/mol
MQSTWGNVTVTFSNPEEAKKYAEKVARKLGGQVELHNGQFRIK [V3S]	0.229 kcal/mol
MQDTWGNVTVTFSNPEEAKKYAEKVARKLGGQVELHNGQFRIK [V3D]	0.045 kcal/mol
MQHTWGNVTVTFSNPEEAKKYAEKVARKLGGQVELHNGQFRIK [V3H]	0.343 kcal/mol
MQKTWGNVTVTFSNPEEAKKYAEKVARKLGGQVELHNGQFRIK [V3K]	0.404 kcal/mol
MQMTWGNVTVTFSNPEEAKKYAEKVARKLGGQVELHNGQFRIK [V3M]	1.05 kcal/mol
MQYTWGNVTVTFSNPEEAKKYAEKVARKLGGQVELHNGQFRIK [V3Y]	0.842 kcal/mol
MQCTWGNVTVTFSNPEEAKKYAEKVARKLGGQVELHNGQFRIK [V3C]	1.8 kcal/mol
MQFTWGNVTVTFSNPEEAKKYAEKVARKLGGQVELHNGQFRIK [V3F]	1.97 kcal/mol
MQWTWGNVTVTFSNPEEAKKYAEKVARKLGGQVELHNGQFRIK [V3W]	0.9 kcal/mol
MQNTWGNVTVTFSNPEEAKKYAEKVARKLGGQVELHNGQFRIK [V3N]	0.227 kcal/mol
